# Measured values taken from patent US20240417458A1.
# pKd: −log10 of the molar value.
# Biological target: FcRn
# Assay: SPR (BIAcore) at pH 6.0
# Chain of FcRn (P55899 24-297, chain 1 of 2): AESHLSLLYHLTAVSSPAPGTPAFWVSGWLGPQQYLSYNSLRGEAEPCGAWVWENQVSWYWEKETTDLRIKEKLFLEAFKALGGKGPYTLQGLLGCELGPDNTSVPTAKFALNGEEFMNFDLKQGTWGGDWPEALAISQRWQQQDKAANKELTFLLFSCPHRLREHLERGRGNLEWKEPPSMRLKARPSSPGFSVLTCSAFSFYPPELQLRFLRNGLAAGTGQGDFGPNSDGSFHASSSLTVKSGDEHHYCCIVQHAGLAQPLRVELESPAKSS
# Chain of FcRn (P61769 21-119, chain 2 of 2, further chain): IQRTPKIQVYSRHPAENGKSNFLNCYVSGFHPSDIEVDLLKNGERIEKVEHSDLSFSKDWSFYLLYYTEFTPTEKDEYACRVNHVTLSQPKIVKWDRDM
row,Substance,pKd
1,Non-specific IgG1 (antibody),5.79
2,Non-specific IgG4 (antibody),5.44
